{"source": "patent US20200268847A1", "about": "“Methods of Treating Newly Diagnosed Multiple Myeloma with a Combination of An Antibody that Specifically Binds CD38, Lenalidomide and Dexamethasone” (Janssen Biotech, Inc., priority 2019, published 2020)", "tested_on": "patients with newly diagnosed multiple myeloma ineligible for HDC and ASCT", "experiment": "MAIA: safety, adverse events graded by NCI-CTCAE version 4, treatment discontinuations", "key": {"[1]": {"conditions": "Grade 3 or 4, safety population"}}, "from_the_text": "Safety will be measured by adverse events, laboratory test results, ECGs, vital sign measurements, physical examination findings, and assessment of ECOG performance status score.\nSafety analyses included adverse event assessment graded in severity according to NCI-CTCAE version 4, electrocardiograms, clinical laboratory testing, physical examinations, and vital signs.\nThe safety population included patients who received any dose of trial treatment.", "data": [{"substance": "daratumumab (DARZALEX®) group: daratumumab (DARZALEX®) in combination with lenalidomide and dexamethasone", "values": [{"measurement": "patients with adverse events leading to discontinuation of trial treatment", "value": 7.1, "unit": "%"}, {"measurement": "adverse events leading to death", "setting": "% of patients", "value": 6.9, "unit": "%"}, {"measurement": "invasive second primary malignancies", "setting": "% of patients", "value": 3.3, "unit": "%"}, {"measurement": "pneumonia as adverse event leading to death", "setting": "% of patients", "value": 0.5, "unit": "%"}, {"measurement": "pneumonia as serious adverse event", "setting": "% of patients", "value": 13.2, "unit": "%"}, {"measurement": "serious adverse events", "setting": "% of patients", "value": 62.9, "unit": "%"}, {"measurement": "Any infusion-related reaction", "setting": "Any Grade, safety population", "value": "149 (40.9) number of patients (percent)"}, {"measurement": "Asthenia", "setting": "Any Grade, safety population", "value": "117 (32.1) number of patients (percent)"}, {"measurement": "Back pain", "setting": "Any Grade, safety population", "value": "123 (33.8) number of patients (percent)"}, {"measurement": "Constipation", "setting": "Any Grade, safety population", "value": "149 (40.9) number of patients (percent)"}, {"measurement": "Diarrhea", "setting": "Any Grade, safety population", "value": "207 (56.9) number of patients (percent)"}, {"measurement": "Fatigue", "setting": "Any Grade, safety population", "value": "147 (40.4) number of patients (percent)"}, {"measurement": "Invasive second primary malignancy", "setting": "Any Grade, safety population", "value": "12 (3.3) number of patients (percent)"}, {"measurement": "Nausea", "setting": "Any Grade, safety population", "value": "115 (31.6) number of patients (percent)"}, {"measurement": "Peripheral edema", "setting": "Any Grade, safety population", "value": "140 (38.5) number of patients (percent)"}, {"measurement": "Second primary malignancy", "setting": "Any Grade, safety population", "value": "32 (8.8) number of patients (percent)"}, {"measurement": "anemia", "setting": "Any Grade, safety population", "value": "126 (34.6) number of patients (percent)"}, {"measurement": "leukopenia", "setting": "Any Grade, safety population", "value": "68 (18.7) number of patients (percent)"}, {"measurement": "lymphopenia", "setting": "Any Grade, safety population", "value": "66 (18.1) number of patients (percent)"}, {"measurement": "pneumonia", "setting": "Any Grade, safety population", "value": "82 (22.5) number of patients (percent)"}, {"measurement": "neutropenia", "setting": "Any Grade, safety population (N = 364 vs 365)", "value": "207 (56.9) number of patients (percent)"}, {"measurement": "Any infusion-related reaction", "setting": "[1]", "value": "10 (2.7) number of patients (percent)"}, {"measurement": "Asthenia", "setting": "[1]", "value": "16 (4.4) number of patients (percent)"}, {"measurement": "Back pain", "setting": "[1]", "value": "11 (3.0) number of patients (percent)"}, {"measurement": "Constipation", "setting": "[1]", "value": "6 (1.6) number of patients (percent)"}, {"measurement": "Diarrhea", "setting": "[1]", "value": "24 (6.6) number of patients (percent)"}, {"measurement": "Fatigue", "setting": "[1]", "value": "29 (8.0) number of patients (percent)"}, {"measurement": "Nausea", "setting": "[1]", "value": "5 (1.4) number of patients (percent)"}, {"measurement": "Peripheral edema", "setting": "[1]", "value": "7 (1.9) number of patients (percent)"}, {"measurement": "anemia", "setting": "[1]", "value": "43 (11.8) number of patients (percent)"}, {"measurement": "leukopenia", "setting": "[1]", "value": "40 (11.0) number of patients (percent)"}, {"measurement": "lymphopenia", "setting": "[1]", "value": "55 (15.1) number of patients (percent)"}, {"measurement": "neutropenia", "setting": "[1]", "value": "182 (50.0) number of patients (percent)"}, {"measurement": "pneumonia", "setting": "[1]", "value": "50 (13.7) number of patients (percent)"}, {"measurement": "treatment discontinued due to adverse events", "setting": "at clinical cutoff date Sep. 24, 2018", "value": 7.4, "unit": "%"}, {"measurement": "anemia", "setting": "grade 3/4 adverse events", "value": 11.8, "unit": "%"}, {"measurement": "leukopenia", "setting": "grade 3/4 adverse events", "value": 11.0, "unit": "%"}, {"measurement": "lymphopenia", "setting": "grade 3/4 adverse events", "value": 15.1, "unit": "%"}, {"measurement": "neutropenia", "setting": "grade 3/4 adverse events", "value": 50.0, "unit": "%"}, {"measurement": "pneumonia", "setting": "grade 3/4 adverse events", "value": 13.7, "unit": "%"}, {"measurement": "discontinued treatment due to neutropenia", "setting": "in vivo", "value": "no patients"}, {"measurement": "invasive second primary malignancies: hematologic malignancies", "setting": "in vivo", "value": 0.5, "unit": "%"}, {"measurement": "invasive second primary malignancies: solid tumors", "setting": "in vivo", "value": 2.7, "unit": "%"}, {"measurement": "lenalidomide dose delays, reductions, re-escalations, or skipping (combined) due to treatment-emergent adverse events", "setting": "in vivo", "value": 77.5, "unit": "%"}, {"measurement": "lenalidomide dose discontinuations due to treatment-emergent adverse events", "setting": "in vivo", "value": 20.9, "unit": "%"}]}]}
